Laboratory results taken from US20040147432A1 (MERCK, published 2004).
Bridges are numbered along the chain shown (N, C = ends). [ ]: non-standard residue; d: D form. Nle = CCCC[C@H](N)C(=O)O; GABA = NCCCC(=O)O; βAla = NCCC(=O)O

Experiments:
[1] = target: T1, human melanin concentrating hormone type 2 receptor (MCH-2R) (human, UniProt Q969V1 1-340); assay: cell-based or functional assay
human MCH-1R [2] = target: T2, human MCH-1R (human, UniProt Q99705 1-353); assay: cell-based or functional assay
[3] = target: T1, human melanin concentrating hormone …; assay: SPA competition with [125I]-human MCH (Phe13, Tyr19) on receptor membranes
Experimental: (§1) For the SPA-based assay, WGA-PVT beads (NEN Life Sciences Products) were resuspended in Dulbecco's PBS with calcium and magnesium (500 mg beads in 4 ml PBS). […] The suspension was mixed gently for 20 minutes, 12.3 ml of assay buffer and protease inhibitors were added (final concentration given): 2 μg/ml leupeptin, 10 μM phosphoramidon, 40 μg/ml bacitracin, 5 μg/ml aprotinin, 0.1 mM Pefabloc.
(§2) Coated beads were kept on ice until use. […] Binding reactions were allowed to proceed at room temperature for 3 hours. Quantitation was performed by scintillation counting (TopCount device).

human MCH-1R [4] = target: T2, human MCH-1R; assay: as above
Experimental: as §1, §2

T2 sequence (Q99705 whole entry, form in doubt): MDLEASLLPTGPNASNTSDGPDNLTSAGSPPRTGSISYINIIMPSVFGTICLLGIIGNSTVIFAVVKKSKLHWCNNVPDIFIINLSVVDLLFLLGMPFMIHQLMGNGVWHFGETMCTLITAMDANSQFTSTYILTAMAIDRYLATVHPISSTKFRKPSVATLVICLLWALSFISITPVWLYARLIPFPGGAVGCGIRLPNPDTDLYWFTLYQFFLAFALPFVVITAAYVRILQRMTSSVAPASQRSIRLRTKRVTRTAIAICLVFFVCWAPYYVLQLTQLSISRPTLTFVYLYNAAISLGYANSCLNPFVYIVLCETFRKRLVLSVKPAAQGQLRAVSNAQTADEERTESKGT
T1 sequence (Q969V1 whole entry, form in doubt): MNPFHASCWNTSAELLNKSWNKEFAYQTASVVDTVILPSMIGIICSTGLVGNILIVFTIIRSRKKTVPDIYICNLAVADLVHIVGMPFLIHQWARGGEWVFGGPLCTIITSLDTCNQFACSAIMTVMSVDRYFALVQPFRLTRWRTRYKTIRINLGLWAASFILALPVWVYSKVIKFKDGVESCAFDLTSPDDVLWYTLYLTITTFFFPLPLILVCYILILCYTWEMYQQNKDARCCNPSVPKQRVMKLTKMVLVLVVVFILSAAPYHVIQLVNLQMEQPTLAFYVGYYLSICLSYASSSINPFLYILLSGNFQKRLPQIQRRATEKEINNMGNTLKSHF

Activation % at 10 µM (aequorin functional assay) [1] [%] | EC50 (aequorin functional assay) [1] [nM] | Activation % at 10 µM (aequorin functional assay) (human MCH-1R [2]) [%] | EC50 (aequorin functional assay) (human MCH-1R [2]) [nM] | IC50 [3] [nM] | IC50 (human MCH-1R [4]) [nM] | % @ concentration [3] [% @ 10 µM] | % @ concentration (human MCH-1R [4]) | Binder
104 | 12 | 42 | 4100 | 18 | 15 | – | – | Ac-RCALGRVYRPC-NH2 (disulfide 2-11; SMILES CC(=O)N[C@@H](CCCNC(=N)N)C(=O)N[C@H]1CSSC[C@@H](C(N)=O)NC(=O)[C@@H]2CCCN2C(=O)[C@H](CCCNC(=N)N)NC(=O)[C@H](Cc2ccc(O)cc2)NC(=O)[C@H](C(C)C)NC(=O)[C@H](CCCNC(=N)N)NC(=O)CNC(=O)[C@H](CC(C)C)NC(=O)[C@H](C)NC1=O, also called Ala^8) [SEQ. ID. NO. 4]
97 | 7.7 | 104 | 31 | 4.6 | 0.59 | – | – | Ac-RCMLARVYRPC-NH2 (disulfide 2-11; SMILES CSCC[C@@H]1NC(=O)[C@@H](NC(=O)[C@H](CCCNC(=N)N)NC(C)=O)CSSC[C@@H](C(N)=O)NC(=O)[C@@H]2CCCN2C(=O)[C@H](CCCNC(=N)N)NC(=O)[C@H](Cc2ccc(O)cc2)NC(=O)[C@H](C(C)C)NC(=O)[C@H](CCCNC(=N)N)NC(=O)[C@H](C)NC(=O)[C@H](CC(C)C)NC1=O, also called Ala^10) [SEQ. ID. NO. 7]
80 | 54 | 106 | 23 | 20 | 0.06 | – | – | RCMLLRVYRPC (also called Leu^10) [SEQ. ID. NO. 8]
36 | > 1000 | – | > 10000 | 9.7 | – | – | – | Ac-RCMLGAVYRPC-NH2 (disulfide 2-11; SMILES CSCC[C@@H]1NC(=O)[C@@H](NC(=O)[C@H](CCCNC(=N)N)NC(C)=O)CSSC[C@@H](C(N)=O)NC(=O)[C@@H]2CCCN2C(=O)[C@H](CCCNC(=N)N)NC(=O)[C@H](Cc2ccc(O)cc2)NC(=O)[C@H](C(C)C)NC(=O)[C@H](C)NC(=O)CNC(=O)[C@H](CC(C)C)NC1=O, also called Ala^11) [SEQ. ID. NO. 23]
95 | 44 | 104 | 65 | 52 | 0.32 | – | – | Ac-RCMLSRVYRPC-NH2 (disulfide 2-11; SMILES CSCC[C@@H]1NC(=O)[C@@H](NC(=O)[C@H](CCCNC(=N)N)NC(C)=O)CSSC[C@@H](C(N)=O)NC(=O)[C@@H]2CCCN2C(=O)[C@H](CCCNC(=N)N)NC(=O)[C@H](Cc2ccc(O)cc2)NC(=O)[C@H](C(C)C)NC(=O)[C@H](CCCNC(=N)N)NC(=O)[C@H](CO)NC(=O)[C@H](CC(C)C)NC1=O, also called Ser^10) [SEQ. ID. NO. 10]
– | 1500 | 6.5 | 300 | – | 1.6 | 38.5 | – | Ac-CMLGRVYRPC-NH2 (disulfide 1-10; not fully specified, positions numbered as in hMCH; also called ?Arg^6) [SEQ. ID. NO. 3]
103 | 16 | 106 | 15 | – | – | – | – | RCMLXRVYRPC (Nle^10 (norleucine)) [SEQ. ID. NO. 9]
83 | – | 23 | – | – | – | – | – | RCMLXRVYRPC (D-Leu^10) [SEQ. ID. NO. 14]
70 | 24 | 88 | – | – | – | – | – | RCMLGRVXRPC (Phe(pNH2)^13) [SEQ. ID. NO. 30]
100 | – | 98 | – | – | 0.6 | – | – | RCMLGRVXRPC (Phe(pF)^13, also called Phe(pF)^13) [SEQ. ID. NO. 29]
91 | 12 | 113 | – | – | – | – | – | RCMLGRVYRXC (Sar^15 (sarcosine)) [SEQ. ID. NO. 32]
78 | – | 33 | – | 2.3 | – | – | – | RCMLXRVYRPC (D-Nle^10, also called D-Nle^10) [SEQ. ID. NO. 15]
92 | – | 3.2 | > 1000 | – | – | – | – | Ac-RCML[βAla]RVYRPC-NH2 (disulfide 2-11 (inferred)) [SEQ. ID. NO. 20]
90 | – | 76 | – | 2.3 | – | – | – | RCMLGRVYRPX (D-Cys^16, also called D-Cys^16) [SEQ. ID. NO. 33]
34 | 58 | – | > 1000 | 9 | 301 | – | – | Ac-RCMLG[Nle]VYRPC-NH2 (disulfide 2-11 (inferred), also called Nle^11) [SEQ. ID. NO. 26]
105 | 12 | 105 | – | – | 0.5 | – | – | RCXLGRVYRPC (Nle^8 (norleucine), also called Nle^8) [SEQ. ID. NO. 5]
94 | 40 | 95 | – | – | – | – | – | RCMLXRVYRPC (Sar^10 (sarcosine)) [SEQ. ID. NO. 6]
120 | 140 | – | > 10000 | – | – | – | 70 % @ 1 µM | RCALXRVYRPC (not fully specified; D-Ala^10, also called Ala^8, D-Ala^10) [SEQ. ID. NO. 35]
49 | 730 | 20 | > 10000 | – | – | – | 83 % @ 10 µM | RCALXXVYRPC (D-Ala^10, Harg^11 (homoarginine), also called Ala^8, D-Ala^10, Harg^11) [SEQ. ID. NO. 38]
76 | – | 93 | – | 9 | – | – | – | RCMLGRVXRPC (Cha^13 (2-cyclohexyl-alanine), also called Cha^13) [SEQ. ID. NO. 31]
112 | – | 101 | – | – | 2.1 | – | – | Ac-RCML[GABA]RVYRPC-NH2 (disulfide 2-11 (inferred), also called εAbu^10) [SEQ. ID. NO. 21]
86 | – | 110 | – | – | – | – | – | RCMLGXVYRPC (N-Me-Arg^11) [SEQ. ID. NO. 22]
90 | 19 | 105 | – | – | – | – | – | RCMLGRVXRPC ((2)Nal^13 ((2')naphthylalanine)) [SEQ. ID. NO. 28]
